Laboratory results taken from article PMC314469, “Protein Interaction Networks by Proteome Peptide Scanning” (PLoS Biology, 2004).
Values belong to the binder of their own block, whether it stands above or below them.

Columns and labels:
[1] = molecular target: T1, amphyphisin SH3 (AMPH_HUMAN), P49418; assay: SPOT array
T1 chain: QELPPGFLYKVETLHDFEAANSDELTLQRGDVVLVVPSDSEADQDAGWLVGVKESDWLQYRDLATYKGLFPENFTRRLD

[2] = molecular target: endophilin SH3 (SH3G2_HUMAN), Q99962; assay: SPOT array

normalised SPOT signal, Boehringer light units (BLU); mean over the file's lines of this peptide [1]: 24.9
normalised SPOT signal, Boehringer light units (BLU); mean over the file's lines of this peptide [2]: 94.9
B6: Q13495 6-19 (peptide)
chain: YPNKIKRPSLEDVT

normalised SPOT signal, Boehringer light units (BLU); mean over the file's lines of this peptide [1]: 386
normalised SPOT signal, Boehringer light units (BLU); mean over the file's lines of this peptide [2]: 127
B8: O94856 414-427 (peptide)
chain: YLTVLGRPDRPRDL

normalised SPOT signal, Boehringer light units (BLU); mean over the file's lines of this peptide [1]: 2220
normalised SPOT signal, Boehringer light units (BLU); mean over the file's lines of this peptide [2]: 1780
B9: P41440 139-152 (peptide)
chain: YIFSLVRPARYQRV

normalised SPOT signal, Boehringer light units (BLU); mean over the file's lines of this peptide [1]: 469
normalised SPOT signal, Boehringer light units (BLU); mean over the file's lines of this peptide [2]: 85.1
B12: Q03188 13-26 (peptide)
chain: YRRRFSRPSRARDI

normalised SPOT signal, Boehringer light units (BLU); mean over the file's lines of this peptide [1]: 23.2
normalised SPOT signal, Boehringer light units (BLU); mean over the file's lines of this peptide [2]: 347
B13: Q16798 148-161 (peptide)
chain: YGLTFRRPRGLFIT

normalised SPOT signal, Boehringer light units (BLU); mean over the file's lines of this peptide [1]: 48.6
normalised SPOT signal, Boehringer light units (BLU); mean over the file's lines of this peptide [2]: 553
B14: BAC04448 133-147 (peptide)
chain: YKVSPGRPPGSIKA

normalised SPOT signal, Boehringer light units (BLU); mean over the file's lines of this peptide [1]: 37
normalised SPOT signal, Boehringer light units (BLU); mean over the file's lines of this peptide [2]: 297
B21: O94824 705-718 (peptide)
chain: YERTLRRPVPLPHS

normalised SPOT signal, Boehringer light units (BLU); mean over the file's lines of this peptide [1]: 87.9
normalised SPOT signal, Boehringer light units (BLU); mean over the file's lines of this peptide [2]: 614
B23: O43670 455-469 (peptide)
chain: YQGGPPRPPMGMRP

normalised SPOT signal, Boehringer light units (BLU); mean over the file's lines of this peptide [1]: 317
normalised SPOT signal, Boehringer light units (BLU); mean over the file's lines of this peptide [2]: 364
B24: Q13006 89-102 (peptide)
chain: YSTGPPRPGRLFGS

normalised SPOT signal, Boehringer light units (BLU); mean over the file's lines of this peptide [1]: 135
normalised SPOT signal, Boehringer light units (BLU); mean over the file's lines of this peptide [2]: 1270
B25: O95428 295-308 (peptide)
chain: YHLPLRRPSPGFSW

normalised SPOT signal, Boehringer light units (BLU); mean over the file's lines of this peptide [1]: 38.4
normalised SPOT signal, Boehringer light units (BLU); mean over the file's lines of this peptide [2]: 110
B26: P42898 339-352 (peptide)
chain: WTEDPRRPLPWALS

normalised SPOT signal, Boehringer light units (BLU); mean over the file's lines of this peptide [1]: 154
normalised SPOT signal, Boehringer light units (BLU); mean over the file's lines of this peptide [2]: 95.9
B27: O43734 232-245 (peptide)
chain: YPQDLPRPLRSREF

normalised SPOT signal, Boehringer light units (BLU); mean over the file's lines of this peptide [1]: 78.3
normalised SPOT signal, Boehringer light units (BLU); mean over the file's lines of this peptide [2]: 137
B28: O75042 916-929 (peptide)
chain: YSSSLERPRKLRAV

normalised SPOT signal, Boehringer light units (BLU); mean over the file's lines of this peptide [1]: 51.5
normalised SPOT signal, Boehringer light units (BLU); mean over the file's lines of this peptide [2]: 208
B30: P30990 153-166 (peptide)
chain: YENKPRRPYILKRD

normalised SPOT signal, Boehringer light units (BLU); mean over the file's lines of this peptide [1]: 35.9
normalised SPOT signal, Boehringer light units (BLU); mean over the file's lines of this peptide [2]: 110
B31: P23368 123-136 (peptide)
chain: YGHIFRRPKGLFIS

normalised SPOT signal, Boehringer light units (BLU); mean over the file's lines of this peptide [1]: 43.2
normalised SPOT signal, Boehringer light units (BLU); mean over the file's lines of this peptide [2]: 55.9
B34: Q9Y4J6 675-688 (peptide)
chain: SNKGFRRPSEKNQH

normalised SPOT signal, Boehringer light units (BLU); mean over the file's lines of this peptide [1]: 40
normalised SPOT signal, Boehringer light units (BLU); mean over the file's lines of this peptide [2]: 118
B35: O14686 2329-2343 (peptide)
chain: YGLSPLRPPSVLPP

normalised SPOT signal, Boehringer light units (BLU); mean over the file's lines of this peptide [1]: 3280
normalised SPOT signal, Boehringer light units (BLU); mean over the file's lines of this peptide [2]: 131
B39: Q92625 879-893 (peptide)
chain: YEEPPQKPPRFSQL

normalised SPOT signal, Boehringer light units (BLU); mean over the file's lines of this peptide [1]: 47.4
normalised SPOT signal, Boehringer light units (BLU); mean over the file's lines of this peptide [2]: 28.6
B40: Q96HE7 77-90 (peptide)
chain: YKVNLKRPSPFWND

normalised SPOT signal, Boehringer light units (BLU); mean over the file's lines of this peptide [1]: 150
normalised SPOT signal, Boehringer light units (BLU); mean over the file's lines of this peptide [2]: 1510
B41: Q96LR7 16-30 (peptide)
chain: YRLPPTRPPASVSP

normalised SPOT signal, Boehringer light units (BLU); mean over the file's lines of this peptide [1]: 4890
normalised SPOT signal, Boehringer light units (BLU); mean over the file's lines of this peptide [2]: 1730
B42: Q96QG0 338-351 (peptide)
chain: SPSAPRRPRRPRRP

Second part, the binder before the results:

B1: Q9HBU2 317-330 (peptide)
chain: SPPIPRRPAEPPWP
normalised SPOT signal, Boehringer light units (BLU); mean over the file's lines of this peptide [1]: 33
normalised SPOT signal, Boehringer light units (BLU); mean over the file's lines of this peptide [2]: 1380

B2: Q9H4M7 331-345 (peptide)
chain: YLQLPPRPPGTRAS
normalised SPOT signal, Boehringer light units (BLU); mean over the file's lines of this peptide [1]: 235
normalised SPOT signal, Boehringer light units (BLU); mean over the file's lines of this peptide [2]: 1230

B3: Q9UGQ3 12-26 (peptide)
chain: YDTFPEKPPPSPGD
normalised SPOT signal, Boehringer light units (BLU); mean over the file's lines of this peptide [1]: 33
normalised SPOT signal, Boehringer light units (BLU); mean over the file's lines of this peptide [2]: 97.2

B4: Q9GZT8 65-78 (peptide)
chain: YHPPIFRPMKRITW
normalised SPOT signal, Boehringer light units (BLU); mean over the file's lines of this peptide [1]: 145
normalised SPOT signal, Boehringer light units (BLU); mean over the file's lines of this peptide [2]: 293

B5: Q9H5Q4 87-101 (peptide)
chain: YLGKPSRPPHLLLE
normalised SPOT signal, Boehringer light units (BLU); mean over the file's lines of this peptide [1]: 44.1
normalised SPOT signal, Boehringer light units (BLU); mean over the file's lines of this peptide [2]: 1770

B7: Q9P2F9 337-350 (peptide)
chain: SQKAFKRPSDLRQH
normalised SPOT signal, Boehringer light units (BLU); mean over the file's lines of this peptide [1]: 61.1
normalised SPOT signal, Boehringer light units (BLU); mean over the file's lines of this peptide [2]: 19

B10: Q9UBX1 412-425 (peptide)
chain: YRHGISRPLRPLSS
normalised SPOT signal, Boehringer light units (BLU); mean over the file's lines of this peptide [1]: 1500
normalised SPOT signal, Boehringer light units (BLU); mean over the file's lines of this peptide [2]: 867

B11: Q9HB39 190-203 (peptide)
chain: YGPNIGRPRKNVIA
normalised SPOT signal, Boehringer light units (BLU); mean over the file's lines of this peptide [1]: 134
normalised SPOT signal, Boehringer light units (BLU); mean over the file's lines of this peptide [2]: 166

B15: Q9UMR2 108-121 (peptide)
chain: YAMGFNRPSKIQEN
normalised SPOT signal, Boehringer light units (BLU); mean over the file's lines of this peptide [1]: 237
normalised SPOT signal, Boehringer light units (BLU); mean over the file's lines of this peptide [2]: 244

B16: Q9BTV6 12-25 (peptide)
chain: YPARPRRPASTAGS
normalised SPOT signal, Boehringer light units (BLU); mean over the file's lines of this peptide [1]: 4030
normalised SPOT signal, Boehringer light units (BLU); mean over the file's lines of this peptide [2]: 2010

B17: Q8WXI7 2968-2981 (peptide)
chain: YHPNPKRPGLDREQ
normalised SPOT signal, Boehringer light units (BLU); mean over the file's lines of this peptide [1]: 43.3
normalised SPOT signal, Boehringer light units (BLU); mean over the file's lines of this peptide [2]: 34.1

B18: Q9HC18 65-78 (peptide)
chain: YHPPIFRPMKRINL
normalised SPOT signal, Boehringer light units (BLU); mean over the file's lines of this peptide [1]: 164
normalised SPOT signal, Boehringer light units (BLU); mean over the file's lines of this peptide [2]: 250

B19: Q9HCL0 744-757 (peptide)
chain: YQHHPKRPSRQIHK
normalised SPOT signal, Boehringer light units (BLU); mean over the file's lines of this peptide [1]: 3940
normalised SPOT signal, Boehringer light units (BLU); mean over the file's lines of this peptide [2]: 432

B20: Q9NZY4 11-24 (peptide)
chain: YSLLFRRPPPSPSP
normalised SPOT signal, Boehringer light units (BLU); mean over the file's lines of this peptide [1]: 204
normalised SPOT signal, Boehringer light units (BLU); mean over the file's lines of this peptide [2]: 175

B22: Q9NPM2 248-262 (peptide)
chain: SQPGPAKPPAHRPS
normalised SPOT signal, Boehringer light units (BLU); mean over the file's lines of this peptide [1]: 39.8
normalised SPOT signal, Boehringer light units (BLU); mean over the file's lines of this peptide [2]: 176

B29: Q9BTL3 26-39 (peptide)
chain: YQEYLKRPPESPPI
normalised SPOT signal, Boehringer light units (BLU); mean over the file's lines of this peptide [1]: 34.1
normalised SPOT signal, Boehringer light units (BLU); mean over the file's lines of this peptide [2]: 42.7

B32: Q9H1B5 714-727 (peptide)
chain: YKPPLSRPLRPGPW
normalised SPOT signal, Boehringer light units (BLU); mean over the file's lines of this peptide [1]: 1210
normalised SPOT signal, Boehringer light units (BLU); mean over the file's lines of this peptide [2]: 263

B33: Q9NR62 73-86 (peptide)
chain: YKVNLKRPSPFWAE
normalised SPOT signal, Boehringer light units (BLU); mean over the file's lines of this peptide [1]: 30.9
normalised SPOT signal, Boehringer light units (BLU); mean over the file's lines of this peptide [2]: 42.2

B36: Q9P2P9 924-937 (peptide)
chain: WVTMPRRPPPSGGL
normalised SPOT signal, Boehringer light units (BLU); mean over the file's lines of this peptide [1]: 31
normalised SPOT signal, Boehringer light units (BLU); mean over the file's lines of this peptide [2]: 2400

B37: Q9NPG4 759-772 (peptide)
chain: YRQQPKRPQKHIQK
normalised SPOT signal, Boehringer light units (BLU); mean over the file's lines of this peptide [1]: 103
normalised SPOT signal, Boehringer light units (BLU); mean over the file's lines of this peptide [2]: 183

B38: Q9UHC9 721-734 (peptide)
chain: YQRLPRRPGEPREV
normalised SPOT signal, Boehringer light units (BLU); mean over the file's lines of this peptide [1]: 116
normalised SPOT signal, Boehringer light units (BLU); mean over the file's lines of this peptide [2]: 143
